From article PMC3699631, “Posttranslational Modifications of the Histone 3 Tail and Their Impact on the Activity of Histone Lysine Demethylases In Vitro” (PLoS ONE, 2013)

Experiments:
[1] = target: T1, human cc-KDM4A (Homo sapiens, UniProt O75164); assay: FDH-assay enzyme kinetics of H3 peptide demethylation, truncated KDM4A; format: biochemical; set-up: key to K m / k cat / k cat /K m: 0 means no demethylation could be detected; details: cc-KDM4A; for K m / k cat / k cat /K m / demethylation / catalytic activity (in words): FDH-assay; for K m: 50 mM HEPES (pH 7.5), 50 mM NaCl, 50 µM FeSO4, 500 µM α-KG, 500 µM ascorbate, 2 mM NAD, substrate 10–1000 µM, NADH fluorescence 15–30 minutes; for K m / k cat / k cat /K m: triplicate; for k cat / k cat /K m: pH 7.5; for k cat: NADH fluorescence; for demethylation / catalytic activity (in words): compared to H3(1–24)K9me3 where a change is stated
T1 construct: Truncated constructs of KDM4A and KDM4C containing only the catalytic cores (cc-KDM4A/cc-KDM4C); made in house
T1 sequence (O75164 1-350 limits assumed): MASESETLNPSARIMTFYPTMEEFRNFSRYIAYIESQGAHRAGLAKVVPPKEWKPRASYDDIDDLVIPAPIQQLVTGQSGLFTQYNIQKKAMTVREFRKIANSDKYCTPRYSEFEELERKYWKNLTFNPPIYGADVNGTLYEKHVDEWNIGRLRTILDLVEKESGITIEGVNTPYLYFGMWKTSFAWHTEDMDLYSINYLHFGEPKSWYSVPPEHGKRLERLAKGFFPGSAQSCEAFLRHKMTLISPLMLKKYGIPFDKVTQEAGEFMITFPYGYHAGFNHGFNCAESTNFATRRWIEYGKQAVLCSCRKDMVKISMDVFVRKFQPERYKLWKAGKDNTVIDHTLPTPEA
Procedure: (§1) The enzyme kinetics were measured using a Formaldehyde DeHydrogenase Assay (FDH-Assay) and the demethylation of substrates was confirmed when possible by MALDI-TOF-MS, see File S1 for details. The test solution contained 50 mM HEPES (pH 7.5), 50 mM NaCl, 50 µM FeSO4, 500 µM α-KG, 500 µM ascorbate, 2 mM NAD, approximately 0.05 unit of FDH and e.g. 4.88 µM KDM4C (enzyme concentration varied between batches). The reference solution was comprised of the same except substrate. The assay was initiated by adding various concentrations of H3 peptide substrates e.g. H3(1–24)K9me3 (10–1000 µM) and the increase in NADH fluorescence was measured over 15–30 minutes in 30 second intervals. Data analysis and kinetic values were obtained using programs Excel and GraphPad Prism® 5.0. For details, see File S1.
(§2) The standard deviations for k cat/K m were calculated using the statistic law of propagation of errors. Standard errors for Michaelis-Menten Kinetics were automatically given in GraphPad Prism®, with a 95% confidence interval. All enzyme kinetic curves were done in triplicate unless otherwise stated.
(§3) Test for activity of enzyme using the fluorescence FDH assay, determination of Vmax and Km of enzymes with substrate, expression and purification of cc-KDM4A and cc-KDM4C software and parameters for the FDH coupled assay, see Lohse et al.^21
as §2, with “kcat/ Km” for “k cat/K m”, “95 %” for “95%”

[2] = target: T2, human cc-KDM4C (Homo sapiens, UniProt Q9H3R0); assay: FDH-assay enzyme kinetics of H3 peptide demethylation, truncated KDM4C; format: biochemical; details: for K m / demethylation / catalytic activity (in words) / k cat / k cat /K m: FDH-assay; for K m: 50 mM HEPES (pH 7.5), 50 mM NaCl, 50 µM FeSO4, 500 µM α-KG, 500 µM ascorbate, 2 mM NAD, substrate 10–1000 µM, e.g. 4.88 µM KDM4C, NADH fluorescence 15–30 minutes; for K m / k cat: triplicate; for demethylation / catalytic activity (in words): compared to H3(1–24)K9me3 where a change is stated; for k cat: pH 7.5, NADH fluorescence; for k cat /K m: pH 7.5, triplicate
T2 construct: Truncated constructs of KDM4A and KDM4C containing only the catalytic cores (cc-KDM4A/cc-KDM4C); made in house
T2 sequence (Q9H3R0 1-349 limits assumed): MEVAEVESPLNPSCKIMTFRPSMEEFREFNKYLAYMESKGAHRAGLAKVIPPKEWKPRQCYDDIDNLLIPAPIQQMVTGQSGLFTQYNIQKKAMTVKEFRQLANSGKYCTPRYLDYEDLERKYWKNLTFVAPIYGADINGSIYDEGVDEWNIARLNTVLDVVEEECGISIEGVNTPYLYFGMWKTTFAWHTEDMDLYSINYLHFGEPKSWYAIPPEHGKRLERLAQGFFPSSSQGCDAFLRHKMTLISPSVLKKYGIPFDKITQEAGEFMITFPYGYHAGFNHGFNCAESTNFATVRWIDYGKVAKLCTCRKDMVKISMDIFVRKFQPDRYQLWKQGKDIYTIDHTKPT
Procedure: as §1, §2, §3
as §2, with “kcat/ Km” for “k cat/K m”, “95 %” for “95%”

[3] = SD by propagation of errors, unit: min^−1 * µM^−1 * 10^3
[4] = SD by propagation of errors, unit: (min^−1 * µM^−1) * 10^3

| Substance | K m [1] | k cat [1] | k cat /K m [1, 3] | fold increase in k cat/K m ([1]; compared to H3(1–24)K9me3) | k cat /K m ([1]; figures and text) | K m [2] | demethylation / catalytic activity (in words) [2] | k cat [2] | k cat /K m [2, 4] | fold increase in k cat/K m ([2]; compared to H3(1–24)K9me3) | k cat /K m ([2]; figures) | demethylation / catalytic activity (in words) [1] |
| --- | --- | --- | --- | --- | --- | --- | --- | --- | --- | --- | --- | --- |
| H3(1–24)K4me3K9me3: bis-tri-methylated substrate, trimethylated K4 in combination with H3K9me3 | 82±11 | 1.1±0.04 | 13.4±1.9 | 2 fold | 13±2 min^-1 * μM^-1 * 10^3 | 70±13 | an increase of the enzymatic catalytic efficiency | 1.2±0.1 | 17±2 | 2 fold | 17 ± 2 min^-1 * μM^-1 * 10^3 | – |
| H3(1–24)K9me2: truncated histone tail, 24 first amino acids from the N-terminus of H3, dimethylated lysine 9 | Below detection | Below detection | Below detection | – | – | 79±10 | – | 0.1±0.01 | 1.3±0.2 | – | – | could not be detected |
| H3(1–24)K9me3: truncated histone tail, 24 first amino acids from the N-terminus of H3, trimethylated lysine 9; control peptide | 131±16 | 1.1±0.04 | 8.4±1.1 | – | 8.4±1.1 min^-1 * μM^-1 * 10^3 | 55±11 | – | 0.5±0.04 | 9±1 | – | 9 ± 1 min^-1 * μM^-1 * 10^3 | – |
| H3(1–24)K9me3T11(ph): H3(1–24)K9me3 with phosphorylation of threonine 11 | 0 | 0 | 0 | – | – | – | no detectable turnover | – | – | – | – | no detectable turnover |
